This assay deals with recombinant C-terminal fragment (residues 284-707) of nucleolin (nucleolin-C) (UniProt P19338). In words: SPR; Biacore 3000; nucleolin-C amine-coupled on CM4 chip (~540 RU); FGF1 or FGF2 10-320 nM in PBS with 0.1 mg/ml BSA, 0.005% P20, pH 7.3, 25 C, 30 ul/min; no fit to 1:1 Langmuir, constants by Interaction Map (two parallel processes); apparent/approximate. (In SPR one partner is held on a chip, and binding of the other changes the refractive index at the surface.)
UniProt P19338, sequence (P19338 284-707): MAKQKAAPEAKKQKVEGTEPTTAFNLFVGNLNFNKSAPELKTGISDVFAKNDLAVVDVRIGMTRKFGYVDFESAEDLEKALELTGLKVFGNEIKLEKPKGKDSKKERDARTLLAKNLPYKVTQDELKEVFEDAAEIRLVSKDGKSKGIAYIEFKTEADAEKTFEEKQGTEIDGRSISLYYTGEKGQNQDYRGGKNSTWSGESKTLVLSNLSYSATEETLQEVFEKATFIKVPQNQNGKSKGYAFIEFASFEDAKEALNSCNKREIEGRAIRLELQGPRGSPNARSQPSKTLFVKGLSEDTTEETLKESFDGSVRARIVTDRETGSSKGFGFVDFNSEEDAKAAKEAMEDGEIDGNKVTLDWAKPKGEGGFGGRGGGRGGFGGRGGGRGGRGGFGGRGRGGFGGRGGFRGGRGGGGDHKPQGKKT

Turning to “recombinant FGF1, truncated form (Ala-FGF1 21-154), wild type (ligand)”, the KD, stronger of two parallel binding processes (apparent) amounted to 40 nM; the KD, weaker of two parallel binding processes (approximate) stood at 480 nM; the ka, stronger of two parallel binding processes turned out to be 18000 M⁻¹ s⁻¹; the ka, weaker of two parallel binding processes came to 1.7e+06 M⁻¹ s⁻¹. For the same substance, the kd, stronger of two parallel binding processes was 0.0007 s⁻¹ and the kd, weaker of two parallel binding processes was 0.83 s⁻¹.
